Source: patent publication US5891663

Target: precursor of the polypeptide that induces IFN-γ production in immunocompetent cells (human)

Q: Which conversion of the precursor into the active polypeptide; IFN-γ content (IU/ml) induced in KG-1 cells by the reaction mixture, with Western blot time course does the source give for “interleukin-1β converting enzyme (from UniProt P29466)” here?
A: 4000 IU/ml
